Laboratory results published in publication PMC7840905.

What was measured:
[1] = molecular target: SARS-CoV-2 Nsp15 H235A (SARS-CoV-2); assay: cryo-EM structure
[2] = molecular target: SARS-CoV-2 Nsp15 H235A (SARS-CoV-2); assay: SEC
[3] = molecular target: SARS-CoV-2 Nsp15 H250A (SARS-CoV-2); assay: SEC

Row | Substance | stoichiometry N [1] | stoichiometry N [2] | stoichiometry N [3]
1 | SARS-CoV-2 Nsp15 H235A (enzyme) | 6 | 6 | –
2 | SARS-CoV-2 Nsp15 H250A (enzyme) | – | – | 6
